The values that follow come from publication PMC12386367, “Importin α3 Is Tolerant to Nuclear Localization Signal Chirality” (International Journal of Molecular Sciences, 2025).

What all share (details): both partners purified
For test [1], the target named is T1, Human importin α3 isoform (residues 1–521) (human, UniProt O00629 1-521).
T1 construct: human importin α3 (Impα3, KPNA4), residues 1-521, intact protein with the N-terminal IBB domain; The materials list Ni2+-resin, ampicillin and IPTG, so expression in E. coli is surmised; also called Impα3; KPNA4
T1 sequence (looked up): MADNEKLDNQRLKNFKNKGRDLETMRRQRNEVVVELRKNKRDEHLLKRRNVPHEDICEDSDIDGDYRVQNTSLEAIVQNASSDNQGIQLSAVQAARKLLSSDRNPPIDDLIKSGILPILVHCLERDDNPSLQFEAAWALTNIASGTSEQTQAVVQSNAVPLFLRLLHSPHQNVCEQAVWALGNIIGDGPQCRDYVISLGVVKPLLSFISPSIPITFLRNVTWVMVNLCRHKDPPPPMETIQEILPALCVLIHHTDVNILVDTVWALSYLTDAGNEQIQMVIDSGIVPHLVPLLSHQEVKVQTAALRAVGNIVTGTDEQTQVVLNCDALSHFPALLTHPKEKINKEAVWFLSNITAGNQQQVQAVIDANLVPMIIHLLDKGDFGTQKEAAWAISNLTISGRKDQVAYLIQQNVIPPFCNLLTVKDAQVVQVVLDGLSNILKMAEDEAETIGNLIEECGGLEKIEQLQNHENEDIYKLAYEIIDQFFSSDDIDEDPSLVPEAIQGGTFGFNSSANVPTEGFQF
The test can be described thus: other fluorescence titration; intrinsic fluorescence, excitation at 280 or 295 nm; Impα3 or ∆Impα3 fixed at 3 μM (protomer units), peptide 0–35 μM; 50 mM Tris pH 8.0; 25 °C.

Test [2] deals with T2, IBB-depleted species of Impα3 (residues 64–521 of the intact protein) (human, UniProt O00629 64-521).
T2 construct: PDB 5XZX was used only as the model of ∆Impα3 for docking; its limits may differ from 64-521; also called ΔImpα3; truncated importin species
T2 sequence (looked up): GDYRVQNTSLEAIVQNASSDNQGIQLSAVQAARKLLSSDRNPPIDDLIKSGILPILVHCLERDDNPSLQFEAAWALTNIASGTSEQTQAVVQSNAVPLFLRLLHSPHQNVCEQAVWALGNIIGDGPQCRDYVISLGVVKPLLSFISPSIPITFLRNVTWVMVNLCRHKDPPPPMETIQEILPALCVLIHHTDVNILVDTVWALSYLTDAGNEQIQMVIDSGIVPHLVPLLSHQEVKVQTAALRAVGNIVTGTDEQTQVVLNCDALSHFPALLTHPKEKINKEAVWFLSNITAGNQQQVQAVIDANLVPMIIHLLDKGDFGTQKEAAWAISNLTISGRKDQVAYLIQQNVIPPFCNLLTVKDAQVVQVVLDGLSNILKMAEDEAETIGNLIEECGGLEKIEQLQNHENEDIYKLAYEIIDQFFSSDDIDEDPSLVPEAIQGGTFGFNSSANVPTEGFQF
The description is as above.

For test [3], the target named is T1, Human importin α3 isoform (residues …). The test can be described thus: BLI; His-tagged Impα3 or ∆Impα3 immobilised on His-tag biosensors at 0.25 μM; peptides 1 to 10 μM; BLItz system, manufacturer's 10x kinetics buffer; 25 °C; kon and koff from pseudo-first-order plots; apparent Kd = koff/kon, two-state process assumed. For orientation: BLI is a label-free optical method that tracks binding on a fibre tip over time.

The target in test [4] is T2, IBB-depleted species of Impα3 (residues …). Described as above.
Test [5] deals with T1, Human importin α3 isoform (residues …). The test can be described thus: ITC; importin species (15 µM in protomer units) in the cell, D-NLS peptide (150–200 µM) in the syringe; Tris buffer 50 mM, pH 8.0; 25 °C; single set of binding sites. A general note: In ITC the heat of successive injections is recorded.
Test [6] deals with T2, IBB-depleted species of Impα3 (residues …). The test is described as above.
In test [7] the target is T1, Human importin α3 isoform (residues …). The test is described as above. The source holds these as a separate data set.
The target of test [8] is T2, IBB-depleted species of Impα3 (residues …). Described as above. This is another data set of the same source.

Non-standard residues stand in square brackets, D forms with d.

B1: D-enantiomeric, isolated, non-canonical NLS of PADI4 (peptide)
peptide: Ac-[dK][dL][dF][dQ][dE][dQ][dQ][dN][dE]G[dH]G[dE][dA][dL][dL][dF][dE]G[dI][dK][dK][dK][dK][dQ][dQ][dK][dI]-NH2
SMILES: CC[C@@H](C)[C@@H](NC(=O)[C@@H](CCCCN)NC(=O)[C@@H](CCC(N)=O)NC(=O)[C@@H](CCC(N)=O)NC(=O)[C@@H](CCCCN)NC(=O)[C@@H](CCCCN)NC(=O)[C@@H](CCCCN)NC(=O)[C@@H](CCCCN)NC(=O)[C@H](NC(=O)CNC(=O)[C@@H](CCC(=O)O)NC(=O)[C@@H](Cc1ccccc1)NC(=O)[C@@H](CC(C)C)NC(=O)[C@@H](CC(C)C)NC(=O)[C@@H](C)NC(=O)[C@@H](CCC(=O)O)NC(=O)CNC(=O)[C@@H](Cc1c[nH]cn1)NC(=O)CNC(=O)[C@@H](CCC(=O)O)NC(=O)[C@@H](CC(N)=O)NC(=O)[C@@H](CCC(N)=O)NC(=O)[C@@H](CCC(N)=O)NC(=O)[C@@H](CCC(=O)O)NC(=O)[C@@H](CCC(N)=O)NC(=O)[C@@H](Cc1ccccc1)NC(=O)[C@@H](CC(C)C)NC(=O)[C@@H](CCCCN)NC(C)=O)[C@H](C)CC)C(N)=O
notes: second predicted (non-canonical) NLS region of PADI4 (protein arginine deiminase 4), residues 499-526 of the intact protein, made of D-amino acids; Mirror-image (all-D) peptide; also called D-NLS-PADI; D-form of NLS2-PADI4; source: synthetic peptide (Genscript, purity higher than 95%)
By koff is commonly meant the rate constant with which the complex falls apart. The kon is the second-order rate constant of association. Regarding B1, the Kd amounted to 12 ± 5 µM in test [1], 16 ± 11 µM in test [2], 15 µM in test [3] and 6 µM in test [4]. The koff was determined as 0.6 s⁻¹ in test [3] and 0.37 s⁻¹ in test [4]. For the same molecule, the on-rate (kon) in test [3] was found to be 45000 M⁻¹ s⁻¹; in test [4], 60000 M⁻¹ s⁻¹.

B2: D-enantiomeric, isolated NLS region of NUPR1L (residues 51–74 of the intact protein) (peptide)
peptide: Ac-[dR][dT][dR][dR][dE][dQ][dA][dL][dR][dT][dN][dW][dP][dA][dP]GG[dH][dE][dR][dK][dV][dA][dQ]-NH2
SMILES: CC(=O)N[C@H](CCCNC(=N)N)C(=O)N[C@@H](C(=O)N[C@H](CCCNC(=N)N)C(=O)N[C@H](CCCNC(=N)N)C(=O)N[C@H](CCC(=O)O)C(=O)N[C@H](CCC(N)=O)C(=O)N[C@H](C)C(=O)N[C@H](CC(C)C)C(=O)N[C@H](CCCNC(=N)N)C(=O)N[C@@H](C(=O)N[C@H](CC(N)=O)C(=O)N[C@H](Cc1c[nH]c2ccccc12)C(=O)N1CCC[C@@H]1C(=O)N[C@H](C)C(=O)N1CCC[C@@H]1C(=O)NCC(=O)NCC(=O)N[C@H](Cc1c[nH]cn1)C(=O)N[C@H](CCC(=O)O)C(=O)N[C@H](CCCNC(=N)N)C(=O)N[C@H](CCCCN)C(=O)N[C@@H](C(=O)N[C@H](C)C(=O)N[C@H](CCC(N)=O)C(N)=O)C(C)C)[C@H](C)O)[C@H](C)O
notes: NLS region of NUPR1L (paralogue of NUPR1), residues 51-74 of the intact protein, made of D-amino acids; also called D-NLS-NUPR1L; source: synthetic peptide (Genscript, purity higher than 95%)
On to B2, for which the figures for the dH in test [5] and in test [6] were -2.5 ± 0.2 kcal/mol and -4.5 ± 0.7 kcal/mol, respectively. Besides, the Kd came out at 2.7 ± 0.6 µM in test [7], 5 ± 1 µM in test [8], 1 µM in test [3] and 0.7 µM in test [4]. Further, the koff in test [3] stood at 0.069 s⁻¹; in test [4], 0.038 s⁻¹. Also, the figures for the kon in test [3] and in test [4] were 68000 M⁻¹ s⁻¹ and 51200 M⁻¹ s⁻¹, respectively.
